Consider one protein from article PMC11806767, “The tryptophan-aspartate (WD) repeat domain of bovine Coronin-1A promotes mycobacterial survival by inhibiting calcium signaling-mediated phagosome-lysosome fusion” (Veterinary Research, 2025).

This data set concerns the molecule itself. The experiment in a line: native gel or EMSA. Background: Mobility shift assays separate free from complexed probe on a gel.

B1: bovine Coronin-1A (p3×Flag-bCoronin-1A) (natural protein)
chain: MSRQVVRSSKFRHVFGQPAKADQCYEDVRVSQNTWDSGFCAVNPKFVALICEASGGGAFLVLPLGKTGRVDKNVPMVCGHTAPVLDIAWCPHNDNVIASGSEDCSVMVWEIPDGGLTLPLREPVVTLEGHTKRVGIVAWHPTAQNVLLSAGCDNVILVWDVGTGVAVLTLGSDVHPDTIYSVDWSRDGALICTSCRDKRVRIIEPRKGTIVAEKDRPHEGTRPVRAVFVSDGKILTTGFSRMSERQVALWDTKHLEEPLSLQELDTSSGVLLPFFDPDTNIVYLCGKGDSSIRYFEITSEAPFLHYLSMFSSKESQRGMGYMPKRGLEVNKCEIARFYKLHERKCEPIAMTVPRKSDLFQEDLYPPTAGPDAALTAEEWLGGRDAGPLLISLKDGYVPPKSRELRVNRGLDTGRKRTTPEASGAPSSDAISRLEEEMRKLQATVQELQKRLDRLEETVQAK
What is called stoichiometry N is the number of molecules, sites or subunits per partner or assembly. Consider B1, for which the “stoichiometry N” value is 3.
